Results on four molecules are retold here after PMC6317261, “Functional dissection of the developmentally restricted BEN domain chromatin boundary factor Insensitive” (Epigenetics & Chromatin, 2019).

Where “and” joins values, the source holds several entries; their conditions need not be identical. Identical values can stand only once.

In one data set the target is GST. The data set can be described thus: cross-linking; controls GST and Thioredoxin; the cross-linker is not named in the legend.
Data set [1] concerns the molecule itself. The experiment in a line: SEC; Superose 6 10/300 column; 500 uL of the eluted protein loaded; fractions analysed by SDS-PAGE and EMSA; sizes estimated against Bio-Rad standards.
Data set [2] addresses T1, HT:F-Insv (UniProt Q8SYK5 1-376).
T1 sequence: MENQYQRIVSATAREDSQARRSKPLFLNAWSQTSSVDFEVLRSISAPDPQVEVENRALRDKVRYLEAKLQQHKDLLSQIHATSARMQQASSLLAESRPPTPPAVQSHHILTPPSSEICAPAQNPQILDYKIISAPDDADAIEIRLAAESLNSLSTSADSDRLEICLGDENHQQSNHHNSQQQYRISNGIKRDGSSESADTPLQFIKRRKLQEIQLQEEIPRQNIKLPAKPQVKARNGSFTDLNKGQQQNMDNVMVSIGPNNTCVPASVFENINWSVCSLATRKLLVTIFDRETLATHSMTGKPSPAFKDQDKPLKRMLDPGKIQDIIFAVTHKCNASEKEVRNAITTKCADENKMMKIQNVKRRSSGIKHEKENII
The data set can be described thus: EMSA; 0.0005-0.5 uM protein; EMSA: 25 mM Tris-HCl pH 7.4, 100 mM KCl, 1 mM EDTA, 0.1 mM DTT, 0.1 mM PMSF, 0.03 mg/mL BSA, 10% glycerol, 0.5% Triton X-100, 0.25 mg/mL poly(dI-dC), 30 min room temperature. As to conditions: protein: recombinant; tags: N-terminal His-Thioredoxin; label: 5'-32P; blunt. On the technique in general: In EMSA bound probe runs differently from free probe, usually more slowly.

Another data set has as its target T2, GST:N-terminal 213 aa (UniProt Q8SYK5 1-213).
T2 sequence: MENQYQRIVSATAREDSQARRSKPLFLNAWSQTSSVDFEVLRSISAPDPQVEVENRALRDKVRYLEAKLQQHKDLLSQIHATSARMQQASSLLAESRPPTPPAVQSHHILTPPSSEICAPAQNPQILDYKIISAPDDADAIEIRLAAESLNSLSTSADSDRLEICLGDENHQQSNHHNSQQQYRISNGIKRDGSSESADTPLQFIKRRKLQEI
The data set can be described thus: EMSA; data not shown; EMSA: 25 mM Tris-HCl pH 7.4, 100 mM KCl, 1 mM EDTA, 0.1 mM DTT, 0.1 mM PMSF, 0.03 mg/mL BSA, 10% glycerol, 0.5% Triton X-100, 0.25 mg/mL poly(dI-dC), 30 min room temperature. As to conditions: protein: recombinant; tags: N-terminal GST; label: 5'-32P; blunt.

Another data set concerns the target T3, GST:BEN (UniProt Q8SYK5 258-356).
T3 sequence: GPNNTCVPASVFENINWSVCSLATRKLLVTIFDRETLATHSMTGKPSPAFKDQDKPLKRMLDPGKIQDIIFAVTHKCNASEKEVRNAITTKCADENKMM
The data set can be described thus: EMSA; EMSA: 25 mM Tris-HCl pH 7.4, 100 mM KCl, 1 mM EDTA, 0.1 mM DTT, 0.1 mM PMSF, 0.03 mg/mL BSA, 10% glycerol, 0.5% Triton X-100, 0.25 mg/mL poly(dI-dC), 30 min room temperature. The following applies: protein: recombinant; tags: N-terminal GST; chain copies: 2; label: 5'-32P; blunt.

Another data set has as its target T4, GST:C-BEN (UniProt Q8SYK5 210-376).
T4 sequence: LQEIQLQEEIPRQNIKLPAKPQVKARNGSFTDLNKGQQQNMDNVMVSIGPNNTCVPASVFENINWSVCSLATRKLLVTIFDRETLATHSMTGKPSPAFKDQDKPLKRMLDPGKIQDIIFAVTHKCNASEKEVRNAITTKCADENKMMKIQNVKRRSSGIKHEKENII
The data set is described as above. The following applies: protein: recombinant; tags: N-terminal GST; chain copies: 2; label: 5'-32P; blunt.

A further data set concerns the target T5, GST:F-Insv (UniProt Q8SYK5 1-376).
T5 sequence: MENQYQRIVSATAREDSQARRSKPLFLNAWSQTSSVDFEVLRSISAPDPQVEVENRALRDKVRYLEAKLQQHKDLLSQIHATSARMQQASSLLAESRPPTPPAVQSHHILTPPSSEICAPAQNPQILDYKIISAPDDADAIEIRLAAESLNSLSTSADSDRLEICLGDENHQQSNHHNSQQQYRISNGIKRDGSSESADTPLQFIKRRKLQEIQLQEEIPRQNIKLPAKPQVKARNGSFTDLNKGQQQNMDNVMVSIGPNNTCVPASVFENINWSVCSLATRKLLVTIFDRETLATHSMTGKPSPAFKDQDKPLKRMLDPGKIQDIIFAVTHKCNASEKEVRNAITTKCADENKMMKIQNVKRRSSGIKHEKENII
The experiment in a line: EMSA; closely spaced doublet; EMSA: 25 mM Tris-HCl pH 7.4, 100 mM KCl, 1 mM EDTA, 0.1 mM DTT, 0.1 mM PMSF, 0.03 mg/mL BSA, 10% glycerol, 0.5% Triton X-100, 0.25 mg/mL poly(dI-dC), 30 min room temperature. The following applies: protein: recombinant; tags: N-terminal GST; label: 5'-32P; blunt.

The target in data set [3] is T6, HS:C-BEN (UniProt Q8SYK5 210-376).
T6 sequence: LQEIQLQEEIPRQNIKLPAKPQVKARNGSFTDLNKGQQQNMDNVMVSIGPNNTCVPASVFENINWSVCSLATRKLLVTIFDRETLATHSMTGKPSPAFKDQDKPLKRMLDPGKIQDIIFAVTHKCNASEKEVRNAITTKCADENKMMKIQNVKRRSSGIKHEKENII
The experiment in a line: EMSA; two shifts; slower one predominates at high protein; EMSA: 25 mM Tris-HCl pH 7.4, 100 mM KCl, 1 mM EDTA, 0.1 mM DTT, 0.1 mM PMSF, 0.03 mg/mL BSA, 10% glycerol, 0.5% Triton X-100, 0.25 mg/mL poly(dI-dC), 30 min room temperature. As to conditions: protein: recombinant; tags: N-terminal His-Sumo; chain copies: 2; label: 5'-32P; blunt.

The next data set addresses T7, HS:F-Insv (UniProt Q8SYK5 1-376).
T7 sequence: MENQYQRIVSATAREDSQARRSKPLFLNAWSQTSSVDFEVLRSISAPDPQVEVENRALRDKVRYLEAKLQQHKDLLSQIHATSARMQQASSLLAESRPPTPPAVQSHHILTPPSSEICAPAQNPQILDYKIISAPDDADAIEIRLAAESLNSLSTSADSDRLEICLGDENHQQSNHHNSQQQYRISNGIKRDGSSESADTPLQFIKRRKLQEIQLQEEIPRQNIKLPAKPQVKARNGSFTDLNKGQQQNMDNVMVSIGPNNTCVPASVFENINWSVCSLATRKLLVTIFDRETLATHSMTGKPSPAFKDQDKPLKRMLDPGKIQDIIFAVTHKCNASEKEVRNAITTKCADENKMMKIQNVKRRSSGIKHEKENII
The data set can be described thus: EMSA; gel-filtration fractions ~420-120 kDa; early aggregate fractions give no shift; EMSA: 25 mM Tris-HCl pH 7.4, 100 mM KCl, 1 mM EDTA, 0.1 mM DTT, 0.1 mM PMSF, 0.03 mg/mL BSA, 10% glycerol, 0.5% Triton X-100, 0.25 mg/mL poly(dI-dC), 30 min room temperature. As to conditions: protein: recombinant; tags: N-terminal His-Sumo; label: 5'-32P; blunt.

The target of data set [4] is T6, HS:C-BEN. The data set can be described thus: EMSA; multiple shifts, mainly tetramer/hexamer; EMSA: 25 mM Tris-HCl pH 7.4, 100 mM KCl, 1 mM EDTA, 0.1 mM DTT, 0.1 mM PMSF, 0.03 mg/mL BSA, 10% glycerol, 0.5% Triton X-100, 0.25 mg/mL poly(dI-dC), 30 min room temperature. The following applies: protein: recombinant; tags: N-terminal His-Sumo; chain copies: 2; label: 5'-32P; blunt.

In data set [5] the target is T1, HT:F-Insv. The data set can be described thus: EMSA; multiple shifts; 0.0005-0.5 uM protein; EMSA: 25 mM Tris-HCl pH 7.4, 100 mM KCl, 1 mM EDTA, 0.1 mM DTT, 0.1 mM PMSF, 0.03 mg/mL BSA, 10% glycerol, 0.5% Triton X-100, 0.25 mg/mL poly(dI-dC), 30 min room temperature. As to conditions: protein: recombinant; tags: N-terminal His-Thioredoxin; label: 5'-32P; blunt.

Broadly, the stoichiometry N is the number of molecules, sites or subunits per partner or assembly. The molecule GST (natural protein) showed a stoichiometry N in the data set with GST of 2.

B1: His-Thioredoxin F-Insv (HT:F-Insv) (natural protein, Drosophila, UniProt Q8SYK5 1-376, looked up)
chain: MENQYQRIVSATAREDSQARRSKPLFLNAWSQTSSVDFEVLRSISAPDPQVEVENRALRDKVRYLEAKLQQHKDLLSQIHATSARMQQASSLLAESRPPTPPAVQSHHILTPPSSEICAPAQNPQILDYKIISAPDDADAIEIRLAAESLNSLSTSADSDRLEICLGDENHQQSNHHNSQQQYRISNGIKRDGSSESADTPLQFIKRRKLQEIQLQEEIPRQNIKLPAKPQVKARNGSFTDLNKGQQQNMDNVMVSIGPNNTCVPASVFENINWSVCSLATRKLLVTIFDRETLATHSMTGKPSPAFKDQDKPLKRMLDPGKIQDIIFAVTHKCNASEKEVRNAITTKCADENKMMKIQNVKRRSSGIKHEKENII
notes: Insensitive (Insv), Drosophila, full-length; also called HT:Insv; HT-Insv; source: E. coli, purified (Ni-NTA Agarose); not shown: His6, N-terminal, kept; Thioredoxin, N-terminal, kept
Consider B1, for which the “stoichiometry N” value in data set [1] was 2 and 4.

B2: P3 (dsDNA)
DNA 1: CCACCGCAAAATCCAATTGGAAGAGAGCGACT
DNA 2: AGTCGCTCTCTTCCAATTGGATTTTGCGGTGG
For the molecule B2, the binding result is reported as “binds” with HT:F-Insv [2]; “no binding” in the data set with GST:N-terminal 213 aa; “binds” with GST:BEN; “binds” with GST:C-BEN; “binds” in the data set with GST:F-Insv; “binds” with HS:C-BEN [3]. Also, in the data set with HS:F-Insv, the binding result is on record as “binds”.

B3: P2 (P2#7) (dsDNA)
DNA 1: CTTGCGCAGGACTTTTGAGATTCTATTAAATTCTAACAAGATTTCAAGCTGTGTGGCGGGGGGAAGAGGAAGAGAGCGGAAAGTGCAGCGCCCAATAAGCAAATGGCAGCTGTCACG
DNA 2: CGTGACAGCTGCCATTTGCTTATTGGGCGCTGCACTTTCCGCTCTCTTCCTCTTCCCCCCGCCACACAGCTTGAAATCTTGTTAGAATTTAATAGAATCTCAAAAGTCCTGCGCAAG
As for B3, the binding result with HS:C-BEN [4] and with HT:F-Insv [5] was “binds” throughout.
